Measurements taken from patent US20250236673A1 (Ablynx, published 2025).
Positions count from the first letter of the chain named. Names may count otherwise. “And” between values parts separate entries of the source, which are not always exact repeats. Identical values can stand only once.

T1: recombinant human CEACAM5 (human, UniProt P06731 35-685, limits assumed)
T1 construct: Immobilised by amine coupling on a CM5 chip
T1 sequence (looked up): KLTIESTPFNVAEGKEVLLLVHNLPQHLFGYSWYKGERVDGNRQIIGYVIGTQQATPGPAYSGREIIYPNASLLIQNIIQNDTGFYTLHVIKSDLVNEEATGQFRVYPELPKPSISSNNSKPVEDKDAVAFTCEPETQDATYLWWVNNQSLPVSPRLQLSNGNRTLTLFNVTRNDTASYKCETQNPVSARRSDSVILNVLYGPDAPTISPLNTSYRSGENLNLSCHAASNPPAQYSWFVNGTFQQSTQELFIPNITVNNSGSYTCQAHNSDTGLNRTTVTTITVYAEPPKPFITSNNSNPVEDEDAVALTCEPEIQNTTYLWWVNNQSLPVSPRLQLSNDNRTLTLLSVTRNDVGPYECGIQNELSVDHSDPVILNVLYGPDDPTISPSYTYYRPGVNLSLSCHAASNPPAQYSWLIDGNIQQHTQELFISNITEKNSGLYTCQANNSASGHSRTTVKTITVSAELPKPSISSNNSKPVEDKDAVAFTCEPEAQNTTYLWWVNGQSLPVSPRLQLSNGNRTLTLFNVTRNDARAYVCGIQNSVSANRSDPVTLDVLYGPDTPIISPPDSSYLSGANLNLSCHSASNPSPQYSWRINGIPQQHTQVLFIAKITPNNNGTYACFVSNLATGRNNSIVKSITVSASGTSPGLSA

B1: A044301298 (VHH)
VHH: EVQLVESGGGVVQPGGSLRLSCAASGFTFEDYAIGWFRQAPGREREEVSCIRTYDEQTYYADSVRGRFTISRDNARNTVSLQMNSLRPEDTALYYCAAGSYYACAYYSRPDPSEGHVDLDYWGQGTLVTVSS
B2: A044301152 (VHH)
VHH: B1 VHH with R43K, R65K, R76K
B3: T039400046 (VHH)
VHH: EVQLVESGGGVVQPGGSLRLSCAASGFTFRSFGMSWVRQAPGRGPEWVSSISGSGSDTLYADSVRGRFTISRDNSRNTLYLQMNSLRPEDTALYYCTIGGSLSRSSQGTLVTVSS
notes: Single lysine at the C-terminus; also called HIS6-ENLYFQS-5GS-HSA006A06(K43R, K64R, K75R, K83R)-K
B4: T039400041 (VHH)
VHH: B3 VHH with R65K
notes: Single lysine at 64; also called HIS6-ENLYFQS-5GS-HSA006A06(K43R, K75R, K83R)
B5: T039400039 (VHH)
VHH: B3 VHH with R76K
notes: Single lysine at 75; also called HIS6-ENLYFQS-5GS-HSA006A06(K43R, K64R, K83R)
B6: T039400040 (VHH)
VHH: B3 VHH
notes: No lysine; also called HIS6-ENLYFQS-5GS-HSA006A06(K43R, K64R, K75R, K83R)
B7: T039400044 (VHH)
VHH: B3 VHH with Q107K
notes: also called HIS6-ENLYFQS-5GS-HSA006A06(K43R, K64R, K75R, K83R, Q105K)
B8: T039400043 (VHH)
VHH: B3 VHH with R43K
notes: Single lysine at 43; also called HIS6-ENLYFQS-5GS-HSA006A06(K64R, K75R, K83R)
B9: T039400042 (VHH)
VHH: B3 VHH with N74K
notes: Single lysine at 73; also called HIS6-ENLYFQS-5GS-HSA006A06(K43R, K64R, N73K, K75R, K83R)
B10: T039400045 (VHH)
VHH: B3 VHH with P45K
notes: Single lysine at 45; also called HIS6-ENLYFQS-5GS-HSA006A06(K43R, P45K,K64R, K75R, K83R)
B11: T031200256 (VHH)
VHH: DVQLVESGGGVVQPGGSLRLSCTASGFTFSTADMGWFRQAPGKGREFVARISGIDGTTYYDEPVKGRFTISRDKSKNTVYLQMNSLKPEDTALYYCRSPRYADQWSAYDYWGQGTLVTVSS
B12: T031200261 (VHH)
VHH: B11 VHH with R19K, R72K, Q113K
B13: T031200258 (VHH)
VHH: B11 VHH with R19K, K74N, Q113K
B14: T031200257 (VHH)
VHH: B11 VHH with R19K
B15: T031200259 (VHH)
VHH: B11 VHH with R19K, R72K, K74N, Q113K
B16: T031200263 (VHH)
VHH: B11 VHH with R19K, R45K, R72K, Q113K
B17: T031200260 (VHH)
VHH: B11 VHH with R19K, Q113K
B18: A016600058 (VHH)
VHH: B11 VHH with K74N, K87R
B19: T031200262 (VHH)
VHH: B11 VHH with R19K, R45K, Q113K
B20: T039400047 (VHH)
VHH: EVQLVESGGGVVQPGGSLRLSCAASGLTFSTYTMGWFRQAPGREREFVAAIIWSGSNTYYADSVKGRFTISRDNARNTVYLQMNSLRPEDTALYYCAAQHFGPIGLTTRGYHYWGQGTLVTVSS
notes: Single lysine at 64; also called HIS6-ENLYFQS-5GS-A0315007E07(K43R, K75R)
B21: T039400054 (VHH)
VHH: B20 VHH with K65R
notes: Single lysine at the C-terminus; also called HIS6-ENLYFQS-5GS-A0315007E07(K43R, K64R, K75R,)-K
B22: T039400049 (VHH)
VHH: B20 VHH with K65R, Q116K
notes: also called HIS6-ENLYFQS-5GS-A0315007E07(K43R, K64R, K75R, Q105K)
B23: T039400052 (VHH)
VHH: B20 VHH with K65R, N74K
notes: Single lysine at 73; also called HIS6-ENLYFQS-5GS-A0315007E07K43R, K64R, N73K, K75R
B24: T039400048 (VHH)
VHH: B20 VHH with R45K, K65R
notes: Single lysine at 45; also called HIS6-ENLYFQS-5GS-A0315007E07(K43R, R45K, K64R, K75R)
B25: T039400050 (VHH)
VHH: B20 VHH with K65R
notes: No lysine; also called HIS6-ENLYFQS-5GS-A0315007E07(K43R, K64R, K75R)
B26: T039400053 (VHH)
VHH: B20 VHH with R43K, K65R
notes: Single lysine at 43; 24 used; also called HIS6-ENLYFQS-5GS-A0315007E07(K64R, K75R,)
B27: T028501816 (VHH)
VHH: B3 VHH with R43K, R65K, R76A
notes: K75A vs precursor T028501805; also called HSA006A06(K75A, K83R)
B28: T028501833 (VHH)
VHH: B3 VHH with R65K, R76K
notes: K43R vs precursor T028501805; also called HSA006A06(K43R, K83R)
B29: T028501836 (VHH)
VHH: B3 VHH with R43K, R65K, R76H
B30: T028501834 (VHH)
VHH: B3 VHH with R43K, R76K
notes: K64R vs precursor T028501805; also called HSA006A06(K64R, K83R)
B31: T028501835 (VHH)
VHH: B3 VHH with R43K, R65A, R76K
notes: K64A vs precursor T028501805; also called HSA006A06(K64A, K83R)

Biological target: CD8
Test: kinetics, method not stated in Example 3

| Kd | koff | kon | Binder |
| --- | --- | --- | --- |
| 0.113 nM | 0.000418 s⁻¹ | 3.69e+06 M⁻¹ s⁻¹ | B1 |
| 0.122 nM | 0.000412 s⁻¹ | 3.37e+06 M⁻¹ s⁻¹ | B2 |

Biological target: T2, human serum albumin (human, UniProt P02768 25-609)
T2 construct: Immobilised by amine coupling on a C1 chip; also called HSA
Test: SPR on HSA (Example 2; method not restated, as Example 1)

T2 sequence (P02768 25-609 limits assumed): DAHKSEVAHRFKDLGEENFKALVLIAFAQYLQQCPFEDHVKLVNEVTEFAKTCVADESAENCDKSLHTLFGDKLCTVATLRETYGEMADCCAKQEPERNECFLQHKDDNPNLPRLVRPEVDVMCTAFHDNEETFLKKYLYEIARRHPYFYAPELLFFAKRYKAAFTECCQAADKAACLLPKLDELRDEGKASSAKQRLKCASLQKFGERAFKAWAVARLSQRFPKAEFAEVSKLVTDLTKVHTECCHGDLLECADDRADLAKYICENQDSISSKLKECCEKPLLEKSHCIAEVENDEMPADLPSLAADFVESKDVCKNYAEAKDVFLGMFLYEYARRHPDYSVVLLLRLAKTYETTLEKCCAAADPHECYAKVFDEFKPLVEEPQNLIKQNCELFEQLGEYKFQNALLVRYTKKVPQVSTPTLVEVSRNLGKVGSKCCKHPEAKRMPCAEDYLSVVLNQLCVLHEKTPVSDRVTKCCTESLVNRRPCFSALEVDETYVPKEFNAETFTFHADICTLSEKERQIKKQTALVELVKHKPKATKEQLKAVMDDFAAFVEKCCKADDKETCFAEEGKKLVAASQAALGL

| Kd | koff | kon | Binder |
| --- | --- | --- | --- |
| 5.95 nM | 0.00224 s⁻¹ | 377000 M⁻¹ s⁻¹ | B3 |
| 8.01 nM | 0.00232 s⁻¹ | 289000 M⁻¹ s⁻¹ | B4 |
| 7.51 nM | 0.00226 s⁻¹ | 301000 M⁻¹ s⁻¹ | B5 |
| 6.22 nM | 0.00231 s⁻¹ | 371000 M⁻¹ s⁻¹ | B6 |
| 6.42 nM | 0.00229 s⁻¹ | 357000 M⁻¹ s⁻¹ | B7 |
| 6.42 nM | 0.00226 s⁻¹ | 353000 M⁻¹ s⁻¹ | B8 |
| 89.6 nM | 0.0178 s⁻¹ | 198000 M⁻¹ s⁻¹ | B9 |
| 8.59 nM | 0.00263 s⁻¹ | 306000 M⁻¹ s⁻¹ | B10 |

Biological target: soluble human TNFα (human, UniProt P01375 77-233)
Test: cell-based or functional assay

soluble human TNFα, sequence (P01375 77-233 limits assumed): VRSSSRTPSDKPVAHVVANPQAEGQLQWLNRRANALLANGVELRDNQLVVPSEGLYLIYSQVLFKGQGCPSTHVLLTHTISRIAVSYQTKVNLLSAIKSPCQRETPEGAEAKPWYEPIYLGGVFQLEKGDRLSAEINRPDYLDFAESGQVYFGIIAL

| IC50, inhibition of human TNFα-induced NFkB activation (HEK293_NFkB-NLucP Nano luciferase reporter) | Binder |
| --- | --- |
| 4.3e-11 M (inferred; column head prints 'Average of ka (1/Ms)') | B11 |
| 1.91e-10 M (inferred; column head prints 'Average of ka (1/Ms)') | B12 |
| 6.09e-11 M (inferred; column head prints 'Average of ka (1/Ms)') | B13 |
| 4.93e-11 M (inferred; column head prints 'Average of ka (1/Ms)') | B14 |
| 4.82e-11 M (inferred; column head prints 'Average of ka (1/Ms)') | B15 |
| 1.92e-10 M (inferred; column head prints 'Average of ka (1/Ms)') | B16 |
| 5.34e-11 M (inferred; column head prints 'Average of ka (1/Ms)') | B17 |
| 3.86e-11 M (inferred; column head prints 'Average of ka (1/Ms)') and 2.97e-11 M (inferred; column head prints 'Average of ka (1/Ms)') | B18 |
| 6.43e-11 M (inferred; column head prints 'Average of ka (1/Ms)') | B19 |

Biological target: T1, recombinant human CEACAM5
Test: SPR on CEACAM5 (Example 2; method not restated, as Example 1)

| Kd | koff | kon | Binder |
| --- | --- | --- | --- |
| 0.915 nM | 0.000451 s⁻¹ | 493000 M⁻¹ s⁻¹ | B20 |
| 1.01 nM | 0.000526 s⁻¹ | 522000 M⁻¹ s⁻¹ | B21 |
| 0.914 nM | 0.000536 s⁻¹ | 586000 M⁻¹ s⁻¹ | B22 |
| 1.43 nM | 0.000633 s⁻¹ | 441000 M⁻¹ s⁻¹ | B23 |
| 0.874 nM | 0.000504 s⁻¹ | 577000 M⁻¹ s⁻¹ | B24 |
| 0.952 nM | 0.000526 s⁻¹ | 553000 M⁻¹ s⁻¹ | B25 |
| 0.943 nM | 0.000516 s⁻¹ | 547000 M⁻¹ s⁻¹ | B26 |

Biological target: T2, human serum albumin
Test: SPR Biacore 8K+, HSA amine-coupled on C1 chip, ISVD analyte, 1:1 fit

| Kd | koff | kon | Binder |
| --- | --- | --- | --- |
| 1.31 nM | 0.00105 s⁻¹ | 799000 M⁻¹ s⁻¹ | B27 |
| 1.29 nM | 0.000906 s⁻¹ | 703000 M⁻¹ s⁻¹ | B28 |
| 1.35 nM | 0.00114 s⁻¹ | 839000 M⁻¹ s⁻¹ | B29 |
| 1.11 nM | 0.00112 s⁻¹ | 1.01e+06 M⁻¹ s⁻¹ | B30 |
| 2.06 nM | 0.00108 s⁻¹ | 524000 M⁻¹ s⁻¹ | B31 |
